Laboratory results published in publication PMC10397247.

Key:
[1] = target: T1, 4H1373-bH; experiment: two-hybrid library CCNG1;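 also: natural log of median RNA to DNA barcode read ratio; higher means stronger binding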
T1 chain: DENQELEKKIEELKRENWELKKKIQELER

[2] = target: T2, 4H1449-bH; experiment: two-hybrid library CCNG1;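 also: natural log of median RNA to DNA barcode read ratio; higher means stronger binding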
T2 chain: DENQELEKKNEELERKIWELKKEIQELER

[3] = target: T3, 4H1544-bH; experiment: two-hybrid library CCNG1;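 also: natural log of median RNA to DNA barcode read ratio; higher means stronger binding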
T3 chain: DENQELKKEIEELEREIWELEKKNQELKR

[4] = target: T4, 4H1710-bH; experiment: two-hybrid library CCNG1;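 also: natural log of median RNA to DNA barcode read ratio; higher means stronger binding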
T4 chain: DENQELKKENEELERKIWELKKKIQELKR

[5] = target: T5, 4H1899-bH; experiment: two-hybrid library CCNG1;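 also: natural log of median RNA to DNA barcode read ratio; higher means stronger binding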
T5 chain: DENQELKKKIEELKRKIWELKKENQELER

[6] = target: T6, 4H1985-bH; experiment: two-hybrid library CCNG1;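 also: natural log of median RNA to DNA barcode read ratio; higher means stronger binding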
T6 chain: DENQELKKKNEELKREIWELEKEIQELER

[7] = target: T7, 4H3162-bH; experiment: two-hybrid library CCNG1
T7 chain: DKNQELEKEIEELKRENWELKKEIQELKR

[8] = target: T8, 4H3175-bH; experiment: two-hybrid library CCNG1
T8 chain: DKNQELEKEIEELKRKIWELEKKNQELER

[9] = target: T9, 4H3277-bH; experiment: two-hybrid library CCNG1
T9 chain: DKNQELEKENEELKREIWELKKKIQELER

[10] = target: T10, 4H3298-bH; experiment: two-hybrid library CCNG1
T10 chain: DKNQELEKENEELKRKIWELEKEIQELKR

[11] = target: T11, 4H3462-bH; experiment: two-hybrid library CCNG1
T11 chain: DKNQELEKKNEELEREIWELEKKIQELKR

[12] = target: T12, 4H3497-bH; experiment: two-hybrid library CCNG1
T12 chain: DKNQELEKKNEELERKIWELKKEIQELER

[13] = target: T13, 4H3613-bH; experiment: two-hybrid library CCNG1
T13 chain: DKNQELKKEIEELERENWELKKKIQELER

[14] = target: T14, 4H3628-bH; experiment: two-hybrid library CCNG1
T14 chain: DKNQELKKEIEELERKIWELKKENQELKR

[15] = target: T15, 4H3782-bH; experiment: two-hybrid library CCNG1
T15 chain: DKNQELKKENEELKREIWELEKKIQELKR

[16] = target: T16, 4H3817-bH; experiment: two-hybrid library CCNG1
T16 chain: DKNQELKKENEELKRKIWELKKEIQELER

[17] = target: T17, 4H3843-bH; experiment: two-hybrid library CCNG1
T17 chain: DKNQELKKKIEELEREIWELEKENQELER

[18] = target: T18, 4H3858-bH; experiment: two-hybrid library CCNG1
T18 chain: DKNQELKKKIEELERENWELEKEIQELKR

[19] = target: T19, 4H3926-bH; experiment: two-hybrid library CCNG1
T19 chain: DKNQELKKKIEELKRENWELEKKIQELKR

[20] = target: T20, 4H3974-bH; experiment: two-hybrid library CCNG1
T20 chain: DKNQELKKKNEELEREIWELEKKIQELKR

[21] = target: T21, 4H570-bH; experiment: two-hybrid library CCNG1
T21 chain: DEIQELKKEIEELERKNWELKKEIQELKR

[22] = target: T22, 4H591-bH; experiment: two-hybrid library CCNG1
T22 chain: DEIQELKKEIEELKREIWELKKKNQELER

[23] = target: T23, 4H626-bH; experiment: two-hybrid library CCNG1
T23 chain: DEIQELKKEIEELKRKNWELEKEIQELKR

[24] = target: T24, 4H730-bA; experiment: two-hybrid library CCNG1
T24 chain: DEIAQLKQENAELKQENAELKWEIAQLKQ

[25] = target: T25, 4H850-bH; experiment: two-hybrid library CCNG1
T25 chain: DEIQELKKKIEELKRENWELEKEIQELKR

[26] = target: T26, 4H906-bH; experiment: two-hybrid library CCNG1
T26 chain: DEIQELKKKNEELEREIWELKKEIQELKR

[27] = target: T27, 4H932-bN; experiment: two-hybrid library CCNG1
T27 chain: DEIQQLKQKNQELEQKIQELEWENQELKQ

[28] = target: T28, O8; experiment: two-hybrid library CCNG1
T28 chain: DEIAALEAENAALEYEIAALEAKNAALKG

[29] = target: T29, 4H1388-AA; experiment: two-hybrid library CCmax
T29 chain: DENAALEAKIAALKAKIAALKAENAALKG

[30] = target: T30, 4H1401-AA; experiment: two-hybrid library CCmax; conditions: mean of both orientations
T30 chain: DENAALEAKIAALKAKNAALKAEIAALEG

[31] = target: T31, 4H1513-AA; experiment: two-hybrid library CCmax; conditions: mean of both orientations
T31 chain: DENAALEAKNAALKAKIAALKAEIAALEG

[32] = target: T32, 4H1594-AA; experiment: two-hybrid library CCmax; conditions: mean of both orientations
T32 chain: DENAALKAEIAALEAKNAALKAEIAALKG

[33] = target: T33, 4H1629-AA; experiment: two-hybrid library CCmax; conditions: mean of both orientations
T33 chain: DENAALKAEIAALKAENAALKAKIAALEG

[34] = target: T34, 4H1845-AA; experiment: two-hybrid library CCmax; conditions: mean of both orientations
T34 chain: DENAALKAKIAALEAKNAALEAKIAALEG

[35] = target: T35, 4H1874-AA; experiment: two-hybrid library CCmax; conditions: mean of both orientations
T35 chain: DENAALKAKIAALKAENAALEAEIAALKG

[36] = target: T36, 4H2198-AA; experiment: two-hybrid library CCmax; conditions: mean of both orientations
T36 chain: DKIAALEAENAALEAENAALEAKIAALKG

[37] = target: T37, 4H2553-AA; experiment: two-hybrid library CCmax; conditions: mean of both orientations
T37 chain: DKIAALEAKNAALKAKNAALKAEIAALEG

[38] = target: T38, 4H2611-AA; experiment: two-hybrid library CCmax; conditions: mean of both orientations
T38 chain: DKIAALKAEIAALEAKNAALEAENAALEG

[39] = target: T39, 4H2620-AA; experiment: two-hybrid library CCmax; conditions: mean of both orientations
T39 chain: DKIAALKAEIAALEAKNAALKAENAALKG

[40] = target: T40, 4H2648-AA; experiment: two-hybrid library CCmax; conditions: mean of both orientations
T40 chain: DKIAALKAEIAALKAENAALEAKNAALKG

[41] = target: T41, 4H2907-AA; experiment: two-hybrid library CCmax; conditions: mean of both orientations
T41 chain: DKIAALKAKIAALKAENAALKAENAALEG

[42] = target: T42, 4H3056-AA; experiment: two-hybrid library CCmax; conditions: mean of both orientations
T42 chain: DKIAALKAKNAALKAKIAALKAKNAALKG

[43] = target: T43, 4H3133-AA; experiment: two-hybrid library CCmax; conditions: mean of both orientations
T43 chain: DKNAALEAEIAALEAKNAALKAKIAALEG

[44] = target: T44, 4H3162-AA; experiment: two-hybrid library CCmax; conditions: mean of both orientations
T44 chain: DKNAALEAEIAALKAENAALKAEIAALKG

[45] = target: T45, 4H32-AA; experiment: two-hybrid library CCmax; conditions: mean of both orientations
T45 chain: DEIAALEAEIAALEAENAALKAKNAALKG

[46] = target: T46, 4H3378-AA; experiment: two-hybrid library CCmax; conditions: mean of both orientations
T46 chain: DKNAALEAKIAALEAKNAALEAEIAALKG

[47] = target: T47, 4H340-AA; experiment: two-hybrid library CCmax; conditions: mean of both orientations
T47 chain: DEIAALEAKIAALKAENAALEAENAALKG

[48] = target: T48, 4H3413-AA; experiment: two-hybrid library CCmax; conditions: mean of both orientations
T48 chain: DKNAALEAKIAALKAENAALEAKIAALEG

[49] = target: T49, 4H3588-AA; experiment: two-hybrid library CCmax; conditions: mean of both orientations
T49 chain: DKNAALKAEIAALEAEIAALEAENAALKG

[50] = target: T50, 4H3606-AA; experiment: two-hybrid library CCmax; conditions: mean of both orientations
T50 chain: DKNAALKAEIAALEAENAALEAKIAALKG

[51] = target: T51, 4H3631-AA; experiment: two-hybrid library CCmax; conditions: mean of both orientations
T51 chain: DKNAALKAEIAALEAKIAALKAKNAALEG

[52] = target: T52, 4H3697-AA; experiment: two-hybrid library CCmax; conditions: mean of both orientations
T52 chain: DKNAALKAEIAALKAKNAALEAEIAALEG

[53] = target: T53, 4H3718-AA; experiment: two-hybrid library CCmax; conditions: mean of both orientations
T53 chain: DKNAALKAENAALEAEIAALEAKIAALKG

[54] = target: T54, 4H384-AA; experiment: two-hybrid library CCmax; conditions: mean of both orientations
T54 chain: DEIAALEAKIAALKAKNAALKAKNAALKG

[55] = target: T55, 4H3865-AA; experiment: two-hybrid library CCmax; conditions: mean of both orientations
T55 chain: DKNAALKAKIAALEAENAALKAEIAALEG

[56] = target: T56, 4H697-AA; experiment: two-hybrid library CCmax; conditions: mean of both orientations
T56 chain: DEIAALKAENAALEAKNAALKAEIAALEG

[57] = target: T57, 4H982-AA; experiment: two-hybrid library CCmax; conditions: mean of both orientations
T57 chain: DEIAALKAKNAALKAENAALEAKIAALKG

[58] = target: T58, P2SHb; experiment: two-hybrid library CCNG1
T58 chain: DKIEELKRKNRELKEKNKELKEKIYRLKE

[59] = target: T59, P3SHb; experiment: two-hybrid library CCNG1
T59 chain: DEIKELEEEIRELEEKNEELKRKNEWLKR

[60] = target: T60, P4SHb; experiment: two-hybrid library CCNG1
T60 chain: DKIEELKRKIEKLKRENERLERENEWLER

[61] = target: T61, P5SHb; experiment: two-hybrid library CCNG1
T61 chain: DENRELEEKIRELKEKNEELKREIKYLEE

[62] = target: T62, P6SHb; experiment: two-hybrid library CCNG1
T62 chain: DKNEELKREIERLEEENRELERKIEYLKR

[63] = target: T63, P7SHb; experiment: two-hybrid library CCNG1
T63 chain: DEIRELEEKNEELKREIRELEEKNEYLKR

[64] = target: T64, P8SHb; experiment: two-hybrid library CCNG1
T64 chain: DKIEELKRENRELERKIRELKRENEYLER

[65] = target: T65, P9SHb; experiment: two-hybrid library CCNG1
T65 chain: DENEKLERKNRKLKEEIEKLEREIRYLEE

DENQELEKKIEELKRENWELKKKIQELER [4H1373-bH]
interaction score [1]: 0.778 | interaction score [2]: -1.04 | interaction score [3]: -0.374 | interaction score [4]: -2.29 | interaction score [5]: -2 | interaction score [6]: 0.5 | interaction score [7]: 0.645 | interaction score [8]: 0.281 | interaction score [9]: -0.681 | interaction score [10]: 0.0783 | interaction score [11]: -0.048 | interaction score [12]: -0.763 | interaction score [13]: 0.423 | interaction score [14]: -1.36 | interaction score [15]: -0.345 | interaction score [16]: -0.502 | interaction score [17]: -0.0729 | interaction score [18]: 0.654 | interaction score [19]: 1.67 | interaction score [20]: 0.369 | interaction score [21]: 0.082 | interaction score [22]: -0.84 | interaction score [23]: -0.984 | interaction score [24]: -0.488 | interaction score [25]: -0.156 | interaction score [26]: -0.627 | interaction score [27]: 0.58 | interaction score [28]: -0.719

DENAALEAKIAALKAKIAALKAENAALKG [4H1388-AA]
interaction score [29]: -0.698 | interaction score [30]: -2 | interaction score [31]: -0.0302 | interaction score [32]: -1.66 | interaction score [33]: -1.24 | interaction score [34]: -1.71 | interaction score [35]: -1.59 | interaction score [36]: -1.08 | interaction score [37]: -1.78 | interaction score [38]: -0.829 | interaction score [39]: -0.0212 | interaction score [40]: -0.194 | interaction score [41]: -0.775 | interaction score [42]: -1.68 | interaction score [43]: -1.57 | interaction score [44]: -1.45 | interaction score [45]: 2.52 | interaction score [46]: -1.68 | interaction score [47]: -0.251 | interaction score [48]: -1.7 | interaction score [49]: 2.13 | interaction score [50]: 0.583 | interaction score [51]: 0.242 | interaction score [52]: -1.77 | interaction score [53]: -0.0337 | interaction score [54]: -0.356 | interaction score [55]: -1.23 | interaction score [56]: -1.54 | interaction score [57]: -2.08

DKIEELKRKNRELKEKNKELKEKIYRLKE [P2SHb]
interaction score [58]: -0.669 | interaction score [59]: -0.091 | interaction score [60]: 0.291 | interaction score [61]: 0.588 | interaction score [62]: 0.195 | interaction score [63]: 0.49 | interaction score [64]: -0.265 | interaction score [65]: -1.55
